{
  "source": "patent US20080274950A1",
  "about": "(BABRAHAM INSTITUTE, published 2008)",
  "binders": {"B1": {"name": "chicken N-cadherin-Fc fusion protein with the mutation D134A, dimeric (Fc fusion, UniProt P10288 165-728, looked up)", "chain": "DWVIPPINLPENSRGPFPQELVRIRSDRDKSLSLRYSVTGPGADQPPTGIFIINPISGQLSVTKPLDREQIASFHLRAHAVDVNGNQVENPIDIVINVIDMNDNRPEFLHQVWNGTVPEGSKPGTYVMTVTAIAADDPNAQNGMLRYRILSQAPSSPSPNMFTINNETGDIITVAAGLDREKVQQYTLIIQATDMEGNPTYGLSNTATAVITVTDVNDNPPEFTAMTFYGEVPENRVDVIVANLTVTDKDQPHTPAWNARYQMTGGDPTGQFTILTDPNSNDGLVTVVKPIDFETNRMFVLTVAAENQVPLAKGIQHPPQSTATVSITVIDVNESPYFVPNPKLVRQEEGLLAGSMLTTFTARDPDRYMQQTSLRYSKLSDPANWLKIDPVNGQITTTAVLDRESIYVQNNMYNATFLASDNGIPPMSGTGTLQIYLLDINDNAPQVNPKEATTCETLQPNAINITAVDPDIDPNAGPFAFELPDSPPSIKRNWTIVRISGDHAQLSLRIRFLEAGIYDVPIVITDSGNPHASSTSVLKVKVCQCDINGDCTDVDRIVGAGLGT", "notes": "extracellular domain; also called D134A mutant; N-cadherin Fc mutant D134A; not shown: hinge region, CH2 and CH3 domains of human IgG1 heavy chain (vector pIgSig)"}, "B2": {"name": "wild type chicken N-cadherin-Fc fusion protein, dimeric (linked by disulphide bonds at the Ig hinge region) (Fc fusion, UniProt P10288 165-729, looked up)", "chain": "DWVIPPINLPENSRGPFPQELVRIRSDRDKSLSLRYSVTGPGADQPPTGIFIINPISGQLSVTKPLDREQIASFHLRAHAVDVNGNQVENPIDIVINVIDMNDNRPEFLHQVWNGTVPEGSKPGTYVMTVTAIDADDPNAQNGMLRYRILSQAPSSPSPNMFTINNETGDIITVAAGLDREKVQQYTLIIQATDMEGNPTYGLSNTATAVITVTDVNDNPPEFTAMTFYGEVPENRVDVIVANLTVTDKDQPHTPAWNARYQMTGGDPTGQFTILTDPNSNDGLVTVVKPIDFETNRMFVLTVAAENQVPLAKGIQHPPQSTATVSITVIDVNESPYFVPNPKLVRQEEGLLAGSMLTTFTARDPDRYMQQTSLRYSKLSDPANWLKIDPVNGQITTTAVLDRESIYVQNNMYNATFLASDNGIPPMSGTGTLQIYLLDINDNAPQVNPKEATTCETLQPNAINITAVDPDIDPNAGPFAFELPDSPPSIKRNWTIVRISGDHAQLSLRIRFLEAGIYDVPIVITDSGNPHASSTSVLKVKVCQCDINGDCTDVDRIVGAGLGTG", "notes": "extracellular domain; also called dimeric N-cadherin-Fc; wild type N-cadherin; not shown: hinge region, CH2 and CH3 domains of human IgG1 heavy chain (vector pIgSig)"}},
  "key": {"[1]": {"molecular_target": "T1, wild type full length chicken N-cadherin expressed on stably transfected K562 cells (chicken, UniProt P10288 165-912)", "T1 construct": "whole, on cells; also called K562 transfectants (Wt); wild type cells", "T1 sequence (looked up)": "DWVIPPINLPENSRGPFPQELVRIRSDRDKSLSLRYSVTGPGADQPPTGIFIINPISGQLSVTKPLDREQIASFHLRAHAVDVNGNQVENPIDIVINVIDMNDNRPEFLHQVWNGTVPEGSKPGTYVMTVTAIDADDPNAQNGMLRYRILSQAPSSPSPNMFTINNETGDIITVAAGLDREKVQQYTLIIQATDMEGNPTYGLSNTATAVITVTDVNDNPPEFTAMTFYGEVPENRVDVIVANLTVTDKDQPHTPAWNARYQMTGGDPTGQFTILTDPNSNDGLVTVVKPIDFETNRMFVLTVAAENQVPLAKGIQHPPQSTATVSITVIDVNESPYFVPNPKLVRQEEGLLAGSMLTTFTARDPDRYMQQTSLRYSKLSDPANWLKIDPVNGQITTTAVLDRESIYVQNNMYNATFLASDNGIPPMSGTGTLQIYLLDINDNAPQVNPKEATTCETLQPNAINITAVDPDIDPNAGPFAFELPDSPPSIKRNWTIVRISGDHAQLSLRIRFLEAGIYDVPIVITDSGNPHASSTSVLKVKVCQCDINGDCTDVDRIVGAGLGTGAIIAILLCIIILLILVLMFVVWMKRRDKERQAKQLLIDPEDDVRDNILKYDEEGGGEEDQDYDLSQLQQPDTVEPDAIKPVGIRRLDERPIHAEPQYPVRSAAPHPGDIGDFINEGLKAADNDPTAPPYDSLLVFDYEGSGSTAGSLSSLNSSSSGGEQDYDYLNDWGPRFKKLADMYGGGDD", "assay": "adhesion of K562 transfectants to coated N-cadherin Fc", "procedure,_shortened": "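K562 (or L) cells transfected with wild-type or mutant N-cadherin settled 45 min at 37 °C onto N-cadherin Fc coated at 1 µg/ml. After non-adherent cells were washed off, bound cells were quantified by acid phosphatase activity. Values are % cells adhering ± SEM, quadruplicate.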"}, "[2]": {"molecular_target": "T2, human N-cadherin naturally expressed on DX3 melanoma cells (human, UniProt P19022 160-906)", "T2 construct": "also called DX3 Cells; N-cadherin+ve DX3 melanoma cells", "T2 sequence": "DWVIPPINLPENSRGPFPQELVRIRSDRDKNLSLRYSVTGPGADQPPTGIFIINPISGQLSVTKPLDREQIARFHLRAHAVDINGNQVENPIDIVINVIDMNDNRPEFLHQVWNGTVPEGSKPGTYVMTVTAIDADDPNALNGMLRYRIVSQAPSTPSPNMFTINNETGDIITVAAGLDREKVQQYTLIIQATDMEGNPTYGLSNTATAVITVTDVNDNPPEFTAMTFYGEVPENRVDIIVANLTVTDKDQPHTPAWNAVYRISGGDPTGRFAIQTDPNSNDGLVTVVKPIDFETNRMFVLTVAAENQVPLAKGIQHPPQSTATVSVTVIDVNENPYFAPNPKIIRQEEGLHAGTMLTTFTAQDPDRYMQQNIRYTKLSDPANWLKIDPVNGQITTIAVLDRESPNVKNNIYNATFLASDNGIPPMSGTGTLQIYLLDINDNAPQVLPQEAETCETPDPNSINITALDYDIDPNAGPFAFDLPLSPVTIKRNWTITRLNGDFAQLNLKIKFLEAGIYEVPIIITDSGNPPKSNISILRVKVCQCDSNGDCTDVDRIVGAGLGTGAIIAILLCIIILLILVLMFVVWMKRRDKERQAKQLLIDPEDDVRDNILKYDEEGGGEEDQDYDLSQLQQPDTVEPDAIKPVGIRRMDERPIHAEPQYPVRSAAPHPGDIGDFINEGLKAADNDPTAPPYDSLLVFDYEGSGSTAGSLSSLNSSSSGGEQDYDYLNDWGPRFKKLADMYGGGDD", "assay": "adhesion of DX3 cells to coated N-cadherin-Fc", "method": "Monomeric or dimeric N-cadherin-Fc fusion protein in Cos cell supernatants was added as described for the ELISA assay. DX3 Cells, a human melanoma cell line which expresses N-cadherin, were dissociated with Cell Dissociation Solution (Sigma, code C5789), resuspended in HBSS with 2% FCS and assessed for adhesion to wild type or mutant N-cadherin-Fc as previously described (Corps et al., 2001). Microscopic examination established that the cells were present as a single cell suspension as they settled onto the plate. For assays conducted in reducing conditions, 10 mM DTT was present during the adhesion and washing steps. Determinations were conducted in triplicate and results are presented as mean +/−sem."}},
  "data": [
    {"binder": "B1", "values": [
      {"measurement": "binding result", "setting": "[1]", "result": "no binding (tested: Fc fusion protein coated at 1 µg/ml)"}
    ]},
    {"binder": "B2", "values": [
      {"measurement": "binding result", "setting": "[2]", "result": "binds"}
    ]}
  ]
}
